This note sets out measurements from doi:10.1101/2023.01.13.523903 (bioRxiv, 2023).

The assay deals with Myc-DDK tagged human CD2-associated protein (human, UniProt Q9Y5K6 1-639). Briefly: peptide or protein array.
Sequence of Myc-DDK tagged human CD2-associated protein (Q9Y5K6 whole entry): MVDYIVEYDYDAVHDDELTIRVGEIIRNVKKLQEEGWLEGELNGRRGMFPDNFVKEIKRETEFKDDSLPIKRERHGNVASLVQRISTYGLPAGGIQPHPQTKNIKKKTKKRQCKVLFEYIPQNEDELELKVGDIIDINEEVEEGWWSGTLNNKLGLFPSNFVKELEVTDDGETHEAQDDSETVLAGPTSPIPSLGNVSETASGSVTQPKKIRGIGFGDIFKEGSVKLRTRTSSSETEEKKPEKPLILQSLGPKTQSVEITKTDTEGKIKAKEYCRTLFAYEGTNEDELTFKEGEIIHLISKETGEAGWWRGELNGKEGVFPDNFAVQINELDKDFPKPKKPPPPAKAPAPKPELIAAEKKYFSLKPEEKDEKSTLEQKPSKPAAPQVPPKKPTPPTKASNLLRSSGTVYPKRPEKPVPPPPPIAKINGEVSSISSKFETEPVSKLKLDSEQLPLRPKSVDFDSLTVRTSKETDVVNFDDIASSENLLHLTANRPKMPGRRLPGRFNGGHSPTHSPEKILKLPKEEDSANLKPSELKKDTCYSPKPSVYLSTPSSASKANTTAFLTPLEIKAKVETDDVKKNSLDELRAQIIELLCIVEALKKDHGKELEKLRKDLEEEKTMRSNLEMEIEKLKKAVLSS

For QRPVVPPRRPPPPKK [TKS4 peptide 189], the binding result was “binds”. In the case of EAPQQRPVVPPRRPP [TKS4 peptide 188], the binding result was “binds”.
